Biological target: IMP1 KH34 Y396F (Gallus gallus) (UniProt O42254)
Test: BLI
Conditions: N6-methyladenosine at position 6; BLI: 10 mM Na2HPO4 pH 6.5, 50 mM NaCl, 1 mM TCEP, 2 mg/ml BSA, 0.005% Tween-20, 25 C; NMR: 80 uM protein, 37 C, NMR buffer not printed (protein in 10 mM …)

Sequence of IMP1 KH34 Y396F (Gallus gallus) (O42254 387-573 Y396F): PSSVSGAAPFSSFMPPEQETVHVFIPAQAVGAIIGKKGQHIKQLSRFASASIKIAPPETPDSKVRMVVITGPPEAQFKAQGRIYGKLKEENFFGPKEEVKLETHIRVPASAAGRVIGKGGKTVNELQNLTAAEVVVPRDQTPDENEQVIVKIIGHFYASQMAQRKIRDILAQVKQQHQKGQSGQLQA

In the case of ACTB zipcode RNA, m6A, the Kd is reported as 3.7 nM.
